Measured values: paper PMC7730289, “Development of a CD63 Aptamer for Efficient Cancer Immunochemistry and Immunoaffinity-Based Exosome Isolation”

Columns and labels:
[1] = target: T1, CD63 large extracellular domain, recombinant (Homo sapiens, UniProt P08962 103-203); assay: ELISA; PBS pH 7.4, 2.0 mM MgCl2, 0.02% Tween 20, 100 ug/mL salmon sperm DNA; ELISA 0.5 h; cells at RT 1 h (Methods) or 37 C 30 min (Results); details: protein: commercial, tags: C-terminal His
HER2 = HER2 (Homo sapiens (Human), UniProt P04626 23-652); assay: as above; details: protein: commercial
[2] = target: T1, CD63 large extracellular domain, …; assay: ELISA; 200 nM aptamer; PBS pH 7.4, 2.0 mM MgCl2, 0.02% Tween 20, 100 ug/mL salmon sperm DNA; ELISA 0.5 h; cells at RT 1 h (Methods) or 37 C 30 min (Results); details: protein: commercial; tags: C-terminal His; label: biotin

T1 sequence (P08962 103-203): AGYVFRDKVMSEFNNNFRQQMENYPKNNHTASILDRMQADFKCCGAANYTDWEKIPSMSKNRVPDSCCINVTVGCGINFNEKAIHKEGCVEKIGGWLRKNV

**Q.** Which Kd ([1]; label: biotin (ELISA)) does the source give for TAACCACCCCACCTCGCTCCCGTGACACTAATGCTAATTCCAA (ssDNA) [CD63-2] here?
**A.** 78.4 nM

**Q.** Does TAACCACCCCACCTCGCTCCCGTGACACTAATGCTAATTCCAA (ssDNA) [CD63-2] bind (HER2; label: biotin (ELISA))?
**A.** no binding

**Q.** Which results are given for TAACACGACAGACGTTCGGAGGTCGAACCCTGACAGCGTGGGC (ssDNA) [CD63-1]?
**A.** Kd ([1]; label: 5' or 3' biotin (ELISA)): 38.7 nM; binding result (HER2; label: 5' or 3' biotin (ELISA)): no binding

**Q.** Does TACCTACGACATGCCTGTGCTAGCCGAACCATGCTGAGGTCGT (ssDNA) [CD63-6] bind [2]?
**A.** no binding
